# Measured values as given in EP4762086.
# Several values for one entry are separate records, joined by “and”; a condition that tells them apart may be missing. Equal entries are not always repeated.
# B1: NEO-102 (Ensituximab) (antibody, V domains shown)
# VH: QVQLKESGPDLVAPSQSLSITCTVSGFELSKFGVIWVRQPPGKGLEWLGVIWGDGSTVYNSKLISRLSISKENSKSQVFLKLNSLQADDTATYYCVKPGGDYWGHGTSVTVSS
# VL: QVVLTQSPVIMSASPGEKVTMTCSASSSISYMYWYQQKPGTSPKRWIYDTSKLGSGVPARFSGSGSGTSYSLTISNMEAGDAATYYCHQRDSYPWTFGGGTNLEIK
# Biological target: MUC5AC antigen (human, UniProt P98088)
# Assay: SPR
binder,measurement,value
B1,Kd,7.38 nM and 5.6 nM
